Assay results reported in patent US20220162291A1 (DUKE UNIVERSITY, published 2022).

B1: HSV010-28 (antibody, V domains shown)
VH: QIQLVQSGPELKKPGETVKISCKASGYTFTTYGMSWVKQAPGKGLKWMGWINTYSGVSTYADDFKGRFAFSLETSASTAYLQINNLKNEDTATYFCAQVNYAMDYWGQGTSVTVSS
VL: DIVMTQSHKFLSTSVGDWVTITCKASQDVSTAVAWFQQKPGQSPKVLIYSASYRYTGVPDRFTGSGSGTDFTFTISSVQAEDLAVYYCQQHYSTPRTFGGGTKLEIKR
notes: Mouse monoclonal IgG
B2: 22D10 (antibody, V domains shown)
VH: DVQLQESGPALVKPSQTVSLTCTVTGYSITNGNHWWNWIRQVSGSKLEWLGYIRSSGSSDSNPSLKSRISITRDTSKNQLFLHLNSMTTEDIATYYCARGGGLRHYFDYWGQGTTLTVSS
VL: DIQMTQSPASLSASVGDTVTITCRASGNIHNYLAWYHQKQGKSPQLLVYHAETLTDGVPSRFSGSGSGTQYSLKINSLQPEDFGSYYCQHFWSTPYTFGGGTKLEIKR
notes: Recombinant mouse IgG (made as IgG1 and IgG2c)
B3: 33B8 (antibody, V domains shown)
VH: EVKLVESGGGLVQPGGSLSLSCATSGFTFTDYYMNWVRQPPGKALEWLGFIRNKANGYTTEYSASVKGRFTISRDNSQSILYLQMNSLRAEDSATYYCACGNYVGYAMDYWGQGTSVTVSS
VL: DIVMSQSPSSLAVSAGEKVTMSCKSSQSLLNSRTRKNYLAWYQQKPGQSPKLLIYWASTRESGVPDRFTGSGSGTDFTLTISSVQAEDLAVYYCKQSYNLYTFGGGTKLEIKR
notes: as for B2
B4: HSV010-7 (antibody, V domains shown)
VH: QVQLQQSGPELVKPGASVKLSCKASGYTFTNYDINWVKQRPGQGLEWIGWIYPRDGSTKYNEKFKGKATLTIDTSSSTAYMELHSLTSEDSAVYFCARGIFYVNYDVYWGQGTLVTVSA
VL: DIQMTQSSSFLSVSLGGRVTITCKASDHINNWLAWYQQKPGHAPRLLISGAASLETGVPSRFSGSGSGKDYTLTITSLQTEDVATYYCQQYWSSPLTFGGGTKLELKR
notes: Mouse monoclonal IgG
B5: HSV010-34 (antibody, V domains shown)
VH: EVQLVESGGGLVQPGESLKLSCESNEYEFPSHDMSWVRKTPEKRLELVAAINSDGGSTYYPDTMERRFIISRDNTKKTLYLQMSSLRSEDTALYYCARHSSGYVLDYWGQGTSVTVSS
VL: DIQMTQSSSYLSVSLGGRVTITCKASDHINHWLAWYQQKPGNAPRLLISGATSLETGVPSRFSGSGSGKDYTLSIASLQTEDVATYYCQQYWSTPYTFGGGTKLEIKR
notes: Mouse monoclonal IgG
B6: HSV010-4 (antibody, V domains shown)
VH: QVQLKESGPGLVAPSQSLSITCTVSGFSLSRHDVSWVRQPPGKGLEWLGVIWGDGSTNYHSALISRLSISKDNSKSQVFLKLNSLQNDDTATYYCAKEDYGIFPYWGQGTLVTVSA
VL: DIKMTQSPSSMYASLGEKVTITCKASQDISSYLSWFQQKPGKSPKTLIYRANRLVDGVPSRFSGSGSGQDYSLSISSLDYEDMGIYYCLQYDEFPLTFGAGTKLELKR
notes: Mouse monoclonal IgG

Tests used:
[1] = target: T1, glycoprotein B of HSV-1 (gB-1) (HSV-1, UniProt P10211 31-730); experiment: Luminex bead competition on gB-1; competitor BMPC-23 human IgG at 2 ng/ml
[2] = target: T1, glycoprotein B of HSV-1 (gB-1); experiment: Luminex multiplex assay on gB-1-conjugated microspheres
Method: The gB-1 binding of the antibodies was determined by Luminex multiplex assay. Mixtures of antigen (gB-1)-conjugated microspheres (1,000 counts each) were added to each well of 96-well filter plates (Millipore). […] Samples were diluted in PBS containing 1% cow milk, 1% BSA, 0.05% Tween 20 and 0.05% NaN₃. After washing, PE goat anti-mouse IgG was added to the plates and incubated for 1 hour at room temperature with mild agitation. After washing, microspheres were resuspended in PBS containing 1% BSA, 0.05% Tween 20 and 0.05% NaN₃ and fluorescent signals from each microsphere were measured in a Bio-Plex® 3D machine.

| Binder | percent inhibition at 222 ng/ml [1] | binding result [2] |
| --- | --- | --- |
| B1 | 30% |  |
| B2 |  | no binding |
| B3 |  | no binding |
| B4 | > 90% |  |
| B5 | > 80% |  |
| B6 | > 95% |  |
